Data reported in US20200132689.

Molecular target: panel of anti-NAMPT murine monoclonal antibodies (mAbs)

B1: nicotinamide phosphoribosyltransferase (NAMPT) (protein)
chain: MNPAAEAEFNILLATDSYKVTHYKQYPPNTSKVYSYFECREKKTENSKLRKVKYEETVFYGLQYILNKYLKGKVVTKEKIQEAKDVYKEHFQDDVFNEKGWNYILEKYDGHLPIEIKAVPEGFVIPRGNVLFTVENTDPECYWLTNWIETILVQSWYPITVATNSREQKKILAKYLLETSGNLDGLEYKLHDFGYRGVSSQETAGIGASAHLVNFKGTDTVAGLALIKKYYGTKDPVPGYSVPAAEHSTITAWGKDHEKDAFEHIVTQFSSVPVSVVSDSYDIYNACEKIWGEDLRHLIVSRSTQAPLIIRPDSGNPLDTVLKVLEILGKKFPVTENSKGYKLLPPYLRVIQGDGVDINTLQEIVEGMKQKMWSIENIAFGSGGGLLQKLTRDLLNCSFKCSYVVTNGLGINVFKDPVADPNKRSKKGRLSLHRTPAGNFVTLEEGKGDLEEYGQDLLHTVFKNGKVTKSYSFDEIRKNAQLNIELEAAHH
With B1 the “NAMPT-induced NFκB phosphorylation” value was “highly efficacious in significantly reducing NAMPT-induced NFκB phosphorylation”.
